Laboratory results published in patent publication US5574007A, “Polypeptide capable of interacting with thrombin” (Asahi Kasei Kogyo Kabushiki Kaisha, priority 1990, dated 1996).
Blank lines part the entries; values can stand above or below the molecule they belong to. Positions of bridges follow the written chain, without caps; N, C: chain ends. Residues, ends and D or L forms follow the SMILES beside them.

Experiments:
[1] = target: binding of thrombin to thrombomodulin (Homo sapiens, UniProt P00734); assay: Activity of synthetic peptides to inhibit the binding of thrombin to thrombomodulin (Dixon plot); conditions: D123Asp-coated plate, crosslinked synthetic peptide
Method: The acitvity of each of the synthetic peptides to inhibit the binding of thrombin to thrombomodulin is determined by the following method. D123Asp purified in Example 1-(4)-(b) is diluted with 0.1M sodium bicarbonate buffer (pH 9.2) so that the final concentration of D123Asp becomes 1.5 μg/ml. 100 μl of the diluent is dispensed to each well of a flat-bottomed 96 well-microtiter plate for ELISA. The plate is allowed to stand for 3 hours, and then each well is washed with 0.1M sodium bicarbonate buffer (pH 9.2). 150 μl of 50 mM Tris-HCl buffer (pH 7.5) containing 0.1M NaCl and 1% BSA is dispensed to each well, and the plate is allowed to stand for 2 hours so that each well is subjected to blocking. To each well of the plate is added a solution obtained by reacting thrombin (0 to 0.4 μg/μl), which has been diluted with a washing solution {50 mM Tris-HCl buffer (pH 7.5) containing 0.5% BSA and 0.05% Tween-20}, with various concentrations of the synthetic peptide solutions at 37° C. for 30 minutes, and a reaction is conducted at room temperature for 1 hour. The plate is washed again with the above-mentioned washing solution. To each well of the plate is added 100 μl of 50 mM Tris-HCl buffer (pH 8.0) containing 0.1M NaCl, in which 200 μM H-D-Phe-Pip-Arg-pNA (Kabi Virum, Sweden, catalog No. S2238) has been dissolved, to thereby liberate pNA (paranitroanilin). A few hours later, the absorbance of the liberated pNA is measured at a wavelength of 410 nm. To determine the inhibition constant (Ki) of each of the synthetic peptides, 100/v in which v represents the thrombin activity (expressed in %) at the time when a peptide having a predetermined concentration is added, assuming the thrombin activity in the absence of a peptide as 100%, is plotted in rectangular coordinates against the concentration of the peptide to-obtain a graph (Dixon plot). The inhibition constant (Ki) is defined as the reading of the intersection of the plotted line with the abscissa.

[2] = target: T1, thrombin-catalyzed activation of protein C (Homo sapiens, UniProt P00734); assay: Assay of the activity to promote the thrombin-catalyzed activation of protein C (Example 1-(3), fluorogenic substrate Boc-Leu-Ser-Thr-Arg-MCA); format: biochemical, bovine; set-up: 3 μl of thrombin (manufactured and sold by Sigma Chemical Company, catalog No. T-6759, 20 ng/μl); purchased Sigma Chemical Company T-6759; conditions: for activity to promote the thrombin-catalyzed activation of protein C (in words): purified polypeptide from COS-1, calcium ion concentrations of 0 to 5 mM
Method: 5 μl of the supernatant of the culture of COS-1 cells is transformed by each of plasmids pSV2TMD7 and pSV2TMD8, 3 μl of thrombin (manufactured and sold by Sigma Chemical Company, catalog No. T-6759, 20 ng/μl), 5 μl of 10×Assay Buffer containing 1M NaCl, 30 mM CaCl2, 1% calf serum albumin and 0.5M tris-HCl buffer (pH 8.5) and 29.5 μl of distilled water are mixed together and allowed to stand at 37° C. for 5 minutes, followed by the addition of 7.5 μl protein C (derived from bovine, 0.2 μg/μl) to the mixture. The reaction is conducted at 37° C. for 30 minutes, and terminated by adding 6.25 μl of a stop solution (20 mM tris-HCl buffer, pH7.5, containing 100 mM NaCl, 0.3A280 anti-thrombin III and 100 μg/ml heparin).
The activity of activated protein C is measured by first adding 10 μl of Boc-Leu-Ser-Thr-Arg-MCA (manufactured and sold by Peptide Institute, The Foundation (Japan), 5 mg/ml), 5 μl of 5M CsCl and 495 μl of a substrate reaction buffer (50 mM tris-HCl buffer containing 100 mM NaCl (pH 8.5)), next allowing the reaction to proceed at 37° C. for 20 minutes, then terminating the reaction by adding 55 μl of acetic acid, and finally measuring the concentration of liberated AMC ([…]) by means of a spectrofluorometer (model RF-540, manufactured and sold by Shimadzu Corporation, Japan) at an excitation wavelength of 380 nm and an emission wavelength of 440 nm. The obtained fluorescence intensity is compared with the fluorescence intensity of a solution having a known AMC concentration to determine the amount of the liberated AMC. The value obtained by deducting from this amount the amount of AMC in the case where an aqueous solution containing no polypeptide of the present invention is added, represents the activity of the polypeptide to promote the thrombin-catalyzed activation of protein C. The activity to produce 1 nM of activated protein C per ml of reaction mixture and per minute is defined as 1 u (unit).
(§1) With respect to the polypeptide solutions (0.4 μg/ml) purified and quantitated in Example 1-(5)-(d), the activity of polypeptides to promote the thrombin-catalyzed activation of protein C is measured according to the method described in Example 1-(3). The CaCl2 concentration of 10×Assay buffer is adjusted so that the activities at calcium ion concentrations of 0 to 5 mM are determined. Also, with respect to protein C having no Gla domain (hereinafter referred to as "GDPC") which is prepared by chymotrypsin treatment according to the method of N. L. Esmon [J. Biol. Chem. Vol. 258, pp. 5548-5553 (1983)]and which is used instead of protein C, the activity measurement is carried out within the same range of calcium concentration.

[3] = target: T2, thrombin-catalyzed activation of GDPC (protein C having no Gla domain) (Homo sapiens, UniProt P00734); assay: Same assay with protein C having no Gla domain (GDPC) instead of protein C; format: biochemical; conditions: calcium ion concentrations of 0 to 5 mM
T2 construct: 3 μl of thrombin (manufactured and sold by Sigma Chemical Company, catalog No. T-6759, 20 ng/μl); purchased Sigma Chemical Company T-6759
Method: as §1

[4] = system: thrombin-catalyzed platelet aggregation; assay: Platelet aggregation-inhibiting activity (Platelet Rich Plasma, HEMA TRACER IV); format: cell-based; conditions: polypeptide purified from Acremonium chrysogenum (Example 6(4))
Method: The activity of each of the polypeptides of the present invention to inhibit the thrombin-catalyzed platelet aggregation is evaluated using platelet aggregation measuring apparatus HEMA TRACER IV (manufactured and sold by NIKO Bioscience, Inc., Japan). Measurement is carried out according to the manual attached thereto. When 40 μl of a 20 NIH unit/ml thrombin solution (manufactured and sold by SIGMA Chemical Co., U.S.A., T 6759) is added to 180 μl of a Platelet Rich Plasma (PRP) platelet solution (3×10^5 cells/μl) and incubated, the aggregation of platelets occurs. […] The aggregation of platelets is determined on the basis of the transparency, assuming the transparency of Platelet Poor Plasma (PPP) solution as 100%. The ratio of platelet aggregation is plotted against the incubation time (0 min: the time when thrombin or a mixture of thrombin and one of the polypeptides is added to the PRP solution). It is confirmed that the platelet aggregation is inhibited when one of the polypeptides of the present invention is added.

[5] = target: thrombin-catalyzed conversion of fibrinogen to fibrin (Homo sapiens, UniProt P00734); assay: Anticoagulating activity: clotting time of a fibrinogen solution; format: biochemical; conditions: polypeptide purified from Acremonium chrysogenum (Example 6(4))
Method: The activity of each of the polypeptides of the present invention to inhibit the thrombin-catalyzed conversion of fibrinogen to fibrin so as to inhibit blood coagulation, is determined by measuring clotting time using Coagulometer KC-10A (manufactured and sold by Heinrich Amelung A.G., Germany). Illustratively stated, to 0.05M Tris-HCl buffer (pH 7.5) containing 5 mM CaCl2 and 0.1M NaCl is added 3.0 μg of fibrinogen (Fraction I, manufactured and sold by Sigma Chemical Company, U.S.A.). To the resultant mixture is added 0 to 50 nM of each of the purified polypeptides of the present invention. Then, 10 nM thrombin is added to the mixture in such an amount that the total amount of the mixture becomes 0.4 ml, and then the coagulation time of the mixture is measured.

[6] = target: T1, thrombin-catalyzed activation of protein C; assay: Activated protein C formation against reaction time with purified polypeptide (Example 4-(6)); format: biochemical
Method: To 0.02M Tris-HCl buffer (pH 8.5) containing 0.1M NaCl, 0.5 mM CaCl2 and 10 mg/ml BSA are added 50 μg/ml protein C, 5 nM thrombin and 5 nM of each of the purified polypeptides of the present invention, and reacted at 37° C. To each of the reaction mixtures are added 300 μg/ml antithrombin III (manufactured and sold by Sigma Chemical Company, U.S.A.) and 5 mM EDTA to terminate the reaction. Then, the amount of the activated protein C produced by the reaction is determined by the method described in Example 1-(3) in which a synthetic substrate is used.

Inhibition constant (Ki) [1]: no inhibiting activity
Molecule: CSCC[C@H](N)C(=O)N[C@@H](Cc1ccccc1)C(=O)N[C@H]1CSSC[C@@H](C(=O)N[C@@H](CC(=O)O)C(=O)O)NC(=O)[C@H](CC(=O)O)NC(=O)[C@H](C)NC(=O)[C@@H]2CCCN2C(=O)[C@H](C)NC(=O)[C@H](C)NC(=O)[C@H]([C@@H](C)O)NC(=O)[C@H](CCC(N)=O)NC(=O)[C@H](CC(N)=O)NC1=O [Polypeptide A, Met-Phe-Cys-Asn-Gln-Thr-Ala-Ala-Pro-Ala-Asp-Cys-Asp] (H-MFCNQTAAPADCD-OH; disulfide 3-12)

Inhibition constant (Ki) [1]: no inhibiting activity
Molecule: C[C@H](N)C(=O)N[C@H]1CSSC[C@@H](C(=O)N[C@@H](CCC(=O)O)C(=O)O)NC(=O)[C@H](CO)NC(=O)[C@H](C)NC(=O)[C@H](CCC(N)=O)NC(=O)[C@H]([C@@H](C)O)NC(=O)[C@H](CC(N)=O)NC(=O)[C@@H]2CCCN2C(=O)[C@H](CC(=O)O)NC(=O)[C@H](C)NC(=O)[C@H](CC(=O)O)NC(=O)[C@H](C)NC(=O)[C@@H]2CCCN2C1=O [Polypeptide B, Ala-Cys-Pro-Ala-Asp-Ala-Asp-Pro-Asn-Thr-Gln-Ala-Ser-Cys-Glu] (H-ACPADADPNTQASCE-OH; disulfide 2-14)

Ki ([1]; read-out: Inhibition constant (Ki)): 95 µM
Molecule: CC[C@H](C)[C@H](NC(=O)[C@H](CC(=O)O)NC(=O)[C@@H](NC(=O)[C@@H]1CSSC[C@H](NC(=O)[C@@H](N)CCC(=O)O)C(=O)N2CCC[C@H]2C(=O)N[C@@H](CCC(=O)O)C(=O)NCC(=O)N[C@@H](Cc2ccc(O)cc2)C(=O)N[C@@H]([C@@H](C)CC)C(=O)N[C@@H](CC(C)C)C(=O)N[C@@H](CC(=O)O)C(=O)N[C@@H](CC(=O)O)C(=O)NCC(=O)N[C@@H](Cc2ccccc2)C(=O)N[C@@H]([C@@H](C)CC)C(=O)N1)[C@@H](C)O)C(=O)N[C@@H](CC(=O)O)C(=O)N[C@@H](CCC(=O)O)C(=O)O [Polypeptide C, Glu-Cys-Pro-Glu-Gly-Tyr-Ile-Leu-Asp-Asp-Gly-Phe-Ile-Cys-Thr-Asp-Ile-Asp-Glu] (H-ECPEGYILDDGFICTDIDE-OH; disulfide 2-14)

activity to promote the thrombin-catalyzed activation of protein C (in words) [2]: low activity
activity in the activation of GDPC (in words) [3]: low activity
Molecule: D123Ala: polypeptide up to the 516th position of human thrombomodulin wherein the 367th Asp is changed to Ala (pSV2TMM1)

activity relative to that of D123Asp ([2]; activation of protein C): 1.2 times
activity to promote the thrombin-catalyzed activation of protein C (in words) [2]: activity similar to that of D123Asp
Molecule: D123Glu: polypeptide up to the 516th position of human thrombomodulin wherein the 367th Asp is changed to Glu (pSV2TMM2)

Molecule: E456Glu: 367th to 480th amino acid residues of human thrombomodulin in which the 367th Asp is replaced by Glu (pSV2TMM3)
thrombin-catalyzed platelet aggregation (in words) [4]: inhibited
clotting time of fibrinogen solution against amount of polypeptide (in words) [5]: the longer the clotting time
activity relative to that of E456Asp ([2]; activation of protein C): 1.3 times
amount of activated protein C with reaction time (in words) ([6]; 5 nM polypeptide, 5 nM thrombin, 50 μg/ml protein C, 37° C., polypeptide from COS-1 or CHO cells): increased with the lapse of reaction time
amount of activated protein C with reaction time (in words) ([6]; polypeptide purified from Acremonium chrysogenum strains D71 and M31 (Example 6(4))): increased with the lapse of reaction time
